The text below walks through data of US20240327538A1 (AMUNIX PHARMACEUTICALS, published 2024).

In assay [1] the target is T1, human PSMA-Fc (human, UniProt Q04609 44-750, limits assumed).
T1 construct: also called Human PSMA-Fc fusions; not shown: Fc part
The assay is described as follows: Octet. In general terms: BLI is a label-free optical method that tracks binding on a fibre tip over time.

Assay [2] addresses T1, human PSMA-Fc. The assay is described as follows: linker length / domain swap comparison.
The target of assay [3] is T2, hPSMA antigen (with an added HHHHHH sequence) (human, UniProt Q04609 44-750).
T2 construct: also called human PSMA (hPSMA)
T2 sequence (Q04609 other isoform, or with tags, fused parts or gaps limits assumed): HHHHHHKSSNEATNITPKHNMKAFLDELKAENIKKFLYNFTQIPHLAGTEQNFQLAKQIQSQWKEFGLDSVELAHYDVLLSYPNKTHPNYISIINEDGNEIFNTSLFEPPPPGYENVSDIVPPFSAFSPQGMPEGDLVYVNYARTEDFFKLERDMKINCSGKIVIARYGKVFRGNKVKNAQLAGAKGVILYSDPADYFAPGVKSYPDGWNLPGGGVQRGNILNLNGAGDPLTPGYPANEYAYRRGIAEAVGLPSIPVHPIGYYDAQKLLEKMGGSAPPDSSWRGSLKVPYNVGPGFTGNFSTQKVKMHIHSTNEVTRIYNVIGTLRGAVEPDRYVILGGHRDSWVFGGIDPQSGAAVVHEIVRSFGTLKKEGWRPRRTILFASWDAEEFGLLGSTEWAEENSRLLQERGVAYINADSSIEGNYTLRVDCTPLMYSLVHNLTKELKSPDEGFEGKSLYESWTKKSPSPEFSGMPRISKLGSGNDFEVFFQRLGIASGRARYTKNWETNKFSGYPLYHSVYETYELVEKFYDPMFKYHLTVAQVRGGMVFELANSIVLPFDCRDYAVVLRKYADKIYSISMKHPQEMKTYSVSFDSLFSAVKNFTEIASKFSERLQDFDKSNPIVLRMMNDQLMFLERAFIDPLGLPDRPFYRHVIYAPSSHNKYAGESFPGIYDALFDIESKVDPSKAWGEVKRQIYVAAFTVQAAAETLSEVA
The assay is described as follows: in vitro screening of VHH from immunized llamas.

For assay [4], the target named is T3, cynomolgus monkey CD3 epsilon (cynomolgus monkey, UniProt Q95LI5 22-117, limits assumed).
T3 construct: also called cyCD3e
T3 sequence (looked up): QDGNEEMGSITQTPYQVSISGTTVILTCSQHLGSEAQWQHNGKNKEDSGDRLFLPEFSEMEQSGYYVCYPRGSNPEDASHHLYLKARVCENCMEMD
As to the kind of experiment: Octet.

A further assay deals with T4, human CD3 epsilon (human, UniProt P07766 23-126, limits assumed).
T4 construct: also called huCD3e
T4 sequence (P07766 23-126 limits assumed): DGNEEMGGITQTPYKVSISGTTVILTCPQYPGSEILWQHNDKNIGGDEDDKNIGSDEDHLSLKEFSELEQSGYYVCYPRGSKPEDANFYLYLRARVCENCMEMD
The assay is described as follows: Octet.

For the next assay, the target named is T5, cynomolgus monkey PSMA (cynomolgus monkey, UniProt A0A2K5VNZ0 44-750).
T5 construct: also called cyPSMA; Cyno PSMA
As to the kind of experiment: Octet.

Assay [5] has as its target T6, human PSMA (human, UniProt Q04609 44-750, limits assumed).
T6 construct: also called huPSMA
As to the kind of experiment: Octet.

Assay [6] deals with T6, human PSMA. As to the kind of experiment: BLI or SPR. An excerpt:
The values are reported below in Table 19 for PSMA and Table 20 for CD3.

Another assay concerns the target T7, Human CD3 (human, UniProt P07766 23-126).
T7 construct: not shown: A CD3 delta partner cannot be excluded
The assay is described as follows: BLI or SPR.

A further assay addresses T8, Cyno CD3 (cynomolgus monkey, UniProt Q95LI5 22-117).
T8 construct: also called cynomolgus monkey CD3; not shown: A CD3 delta partner cannot be excluded
T8 sequence: T3 sequence (looked up)
As to the kind of experiment: BLI or SPR.

The target in assay [7] is T1, human PSMA-Fc. The assay is described as follows: Octet, human PSMA-Fc. The procedure: Binding affinity of select PSMA PTE variants was tested by Octet.

T1 sequence (Q04609 44-750 limits assumed): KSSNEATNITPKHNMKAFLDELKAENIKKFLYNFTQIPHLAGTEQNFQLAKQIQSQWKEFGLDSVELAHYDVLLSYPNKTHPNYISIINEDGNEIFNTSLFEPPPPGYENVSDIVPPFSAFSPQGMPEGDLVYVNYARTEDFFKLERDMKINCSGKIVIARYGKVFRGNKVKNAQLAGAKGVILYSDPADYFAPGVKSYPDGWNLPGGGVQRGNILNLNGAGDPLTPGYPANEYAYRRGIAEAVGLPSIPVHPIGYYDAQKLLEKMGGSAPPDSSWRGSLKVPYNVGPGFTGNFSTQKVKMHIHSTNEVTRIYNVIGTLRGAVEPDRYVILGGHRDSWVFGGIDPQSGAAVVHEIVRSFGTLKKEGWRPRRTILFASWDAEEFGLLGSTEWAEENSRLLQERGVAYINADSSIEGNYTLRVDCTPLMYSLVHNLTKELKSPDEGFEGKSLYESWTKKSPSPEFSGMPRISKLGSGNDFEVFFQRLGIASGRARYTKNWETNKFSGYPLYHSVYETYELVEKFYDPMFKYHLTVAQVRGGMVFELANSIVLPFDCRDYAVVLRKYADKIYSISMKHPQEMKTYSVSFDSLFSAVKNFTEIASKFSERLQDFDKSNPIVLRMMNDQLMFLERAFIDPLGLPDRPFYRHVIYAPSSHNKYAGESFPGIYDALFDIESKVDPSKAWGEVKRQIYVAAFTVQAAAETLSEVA
T6 sequence (Q04609 44-750 limits assumed): as above
T7 sequence (P07766 23-126 limits assumed): as the sequence (P07766 23-126 limits assumed) above

B1: uTCE of AC3353 (bispecific antibody)
chain: LTGPATSGSETPGTQVQLVESGGGVVQPGRSLRLSCAASGRTFGIYVMGWVRQAPGKEREFVAAISWSGSNRLVSDSVKGRFTISRDNSKNTLYLQMNSLRAEDTAVYYCAASNRLYGRTWYDFNESDYWGQGTQVTVSSGGGGSELVVTQEPSLTVSPGGTVTLTCRSSNGAVTSSNYANWVQQKPGQAPRGLIGGTNKRAPGTPARFSGSLLGGKAALTLSGVQPEDEAVYYCALWYPNLWVFGGGTKLTVLGATPPETGAETESPGETTGGSAESEPPGEGEVQLLESGGGIVQPGGSLKLSCAASGFTFNTYAMNWVRQAPGKGLEWVARIRSKYNNYATYYADSVKDRFTISRDDSKNTVYLQMNNLKTEDTAVYYCVRHENFGNSYVSWFAHWGQGTLVTVSSGTAEAASASGEAGRSANHTPAG
notes: unmasked TCE of this paTCE; 5-residue VHH-scFv linker; also called PSMA.5 (5 mer)
B1: the Kd with human PSMA-Fc [1] is 2.1 nM. In the assay with human PSMA-Fc [2], this molecule had a Kd of 2.1 nM, a koff of 0.00022 s⁻¹ and a kon of 110000 M⁻¹ s⁻¹.

B2: CB01B02R3 (VHH)
VHH: QVQLVESGGGLVQAGDSLRLSCVTSGRTFDVYAMGWFRQAPGKERELVAAINWSGSNKFHADSVKGRFTISRDNAWKTLSLQMNSLKPEDTAVYFCAASTRLYGTTWYEFNDSDYWGQGTQVTVSS
notes: also called PSMA.3
As for B2, the binding result in [3] is given as “binds”.

B3: uTCE from AC3445 (bispecific antibody)
chain: LTGPGTSESATPESQVQLVESGGGVVQPGRSLRLSCAASGRTFGIYVMGWVRQAPGKEREFVAAISWSGSNRKVSDSVKGRFTISRDNSKNTLYLQMNSLRAEDTAVYYCAASNRLYGRTWYDFNESDYWGQGTQVTVSSGGGGSGGGSELVVTQEPSLTVSPGGTVTLTCRSSNGAVTSSNYANWVQQKPGQAPRGLIGGTNKRAPGTPARFSGSLLGGKAALTLSGVQPEDEAVYYCALWYPNLWVFGGGTKLTVLSESATPESGPGTSPGATPESGPGTSESATPEVQLLESGGGIVQPGGSLKLSCAASGFTFNTYAMNWVRQAPGKGLEWVARIRSKYNNYATYYADSVKDRFTISRDDSKNTVYLQMNNLKTEDTAVYYCVRHENFGNSYVSWFAHWGQGTLVTVSSGTATPESGPGEAGRSANHTPAG
notes: unmasked TCE released from this paTCE; also called PSMA.119-CD3.23 uTCE
In the case of B3, the Kd in assay [4] is 40 nM; with human CD3 epsilon, 34.8 nM; with cynomolgus monkey PSMA, 47.5 nM; in the assay with human PSMA [5] it was 6.2 nM.

B4: P01C01R3 (VHH)
VHH: QVQLVESGGGLVQAGGSLRLSCAASGRTVNSYAMGWFRQAPGKEREFVASQSWMGAITYDADYADSVKGRFTISRDNAKNTLYLQMNSLKPEDTAVYRCAASRQARPGLHVREYDVWGQGTQVTVSS
On to B4, for which the binding result in [3] is listed as “binds”.

B5: uTCE of AC3356 (bispecific antibody)
chain: LTGPATSGSETPGTQVQLVESGGGVVQPGRSLRLSCAASGRTFGIYVMGWVRQAPGKEREFVAAISWSGSNRLVSDSVKGRFTISRDNSKNTLYLQMNSLRAEDTAVYYCAASNRLYGRTWYDFNESDYWGQGTQVTVSSGGGGSGGGSEVQLLESGGGIVQPGGSLKLSCAASGFTFNTYAMNWVRQAPGKGLEWVARIRSKYNNYATYYADSVKDRFTISRDDSKNTVYLQMNNLKTEDTAVYYCVRHENFGNSYVSWFAHWGQGTLVTVSSGATPPETGAETESPGETTGGSAESEPPGEGELVVTQEPSLTVSPGGTVTLTCRSSNGAVTSSNYANWVQQKPGQAPRGLIGGTNKRAPGTPARFSGSLLGGKAALTLSGVQPEDEAVYYCALWYPNLWVFGGGTKLTVLGTAEAASASGEAGRSANHTPAG
notes: unmasked TCE of this paTCE; CD3.23 in VH-VL order; also called PSMA.5 (domain swap)
Take B5: binding in the assay with human PSMA-Fc [1] was characterised by a dissociation constant (Kd) of 2.4 nM. In the assay with human PSMA-Fc [2], this molecule showed a Kd of 2.4 nM, an off-rate (koff) of 0.00018 s⁻¹ and a kon of 76000 M⁻¹ s⁻¹.

B6: CB01H01R3 (VHH)
VHH: EVQLVESGGGSVQAGGSLSLSCVASGRTFGIYVMGWFRQAPGKEREFVAAISWSGSNRLVSDSVKGRFTISRENAKNTIYLQMNGLKPEDTANYFCAASNRLYGRTWYDFNESDYWGQGTQVTVSS
notes: also called PSMA.2
On to B6, for which the binding result in assay [3] is listed as “binds”.

B7: P01G03R3 (VHH)
VHH: EVQLVESGGGLVQAGGSLRLSCVVSGIAFSPYHMAWYRQAPGKQHEWVAVITTGGTTAYNETVEGRFSISRDNARSTVYLQMNSLKPEDTAVYYCNIYGLSLKWGQGTQVTVSS
With B7, in [3], the binding result is given as “binds”.

B8: P01E02R3 (VHH)
VHH: EVQLVESGGGLVQAGGSLKLSCVANGPTFSTYAMAWFRQAPGKEHEFVAAITGDGDTTNNADSVKGRFTISRDNAKNRVYLQLNSLKPEDTAAYYCAAGVHHTYTIPRLWLYWGQGTQVTVSS
Consider B8, for which, in [3], the binding result is recorded as “binds”.

B9: uTCE of AC3354 (bispecific antibody)
chain: LTGPATSGSETPGTQVQLVESGGGVVQPGRSLRLSCAASGRTFGIYVMGWVRQAPGKEREFVAAISWSGSNRLVSDSVKGRFTISRDNSKNTLYLQMNSLRAEDTAVYYCAASNRLYGRTWYDFNESDYWGQGTQVTVSSGATPPETGAETESPGELVVTQEPSLTVSPGGTVTLTCRSSNGAVTSSNYANWVQQKPGQAPRGLIGGTNKRAPGTPARFSGSLLGGKAALTLSGVQPEDEAVYYCALWYPNLWVFGGGTKLTVLGATPPETGAETESPGETTGGSAESEPPGEGEVQLLESGGGIVQPGGSLKLSCAASGFTFNTYAMNWVRQAPGKGLEWVARIRSKYNNYATYYADSVKDRFTISRDDSKNTVYLQMNNLKTEDTAVYYCVRHENFGNSYVSWFAHWGQGTLVTVSSGTAEAASASGEAGRSANHTPAG
notes: unmasked TCE of this paTCE; 15-residue VHH-scFv linker; also called PSMA.5 (15 mer)
The molecule B9 showed a Kd in the assay with human PSMA-Fc [1] of 3.5 nM. In the assay with human PSMA-Fc [2], this molecule had a Kd of 3.5 nM, a dissociation rate constant (koff) of 0.00027 s⁻¹ and a kon of 77000 M⁻¹ s⁻¹.

B10: CB01A01R3 (VHH)
VHH: EVQLVESGGGLVQAGGSLRISCTASERSVSTYTKGWFRQAPGKERHLVAAISYNGDTTYYSDSVKGRFTISRDNVKNTVNLQMNSLKPEDTAVYFCAARGSSWLYGTWDDYHYWGQGTQVTVSS
As to B10, in [3], the binding result is given as “binds”.

B11: AMX-500(1x-C) (bispecific antibody)
chain: ASSATPESGPGTSTEPSEGSAPGTSESATPESGPGSGPGTSESATPGTSESATPESGPGSEPATSGSETPGTSESATPESGPGTSTEPSEGSAPGSPAGSPTSTEEGTSESATPESGPGSEPATSGSETPGTSESATPESGPGSPAGSPTSTEEGSPAGSPTSTEEGTSTEPSEGSAPGTSESATPESGPGTSESATPESGPGTSESATPESGPGSEPATSGSETPGSEPATSGSETPGSPAGSPTSTEEGTSTEPSEGSAPGTSTEPSEGSAPGSEPATSGSETPGTSESATPEAGRSASHTPAGLTGPGTSESATPESQVQLVESGGGVVQPGRSLRLSCAASGRTFGIYVWGWFRQAPGKEREFVGAMSWSGSNRKVSDSVKGRFTISRDNSKNTLYLQMNSLRAEDTAVYYCAASNKEYGRTWYDFNESDYWGQGTQVTVSSGGGGSGGGSELVVTQEPSLTVSPGGTVTLTCRSSNGAVTSSNYANWVQQKPGQAPRGLIGGTNKRAPGTPARFSGSLLGGKAALTLSGVQPEDEAVYYCALWYPNLWVFGGGTKLTVLSESATPESGPGTSPGATPESGPGTSESATPEVQLVESGGGIVQPGGSLRLSCAASGFTFSTYAMNWVRQAPGKGLEWVGRIRTKRNNYATYYADSVKGRFTISRDDSKNTVYLQMNSLKTEDTAVYYCVRHENFGNSYVSWFAHWGQGTLVTVSSGTATPESGPGEAGRSASHTPAGLTGPATPESGPGTSESATPESGPGSPAGSPTSTEEGTSESATPESGPGSEPATSGSETPGTSESATPESGPGTSTEPSEGSAPGTSTEPSEGSAPGTSTEPSEGSAPGTSTEPSEGSAPGTSTEPSEGSAPGTSTEPSEGSAPGSPAGSPTSTEEGTSTEPSEGSAPGTSESATPESGPGSEPATSGSETPGTSESATPESGPGSEPATSGSETPGTSESATPESGPGTSTEPSEGSAPGTSESATPESGPGSPAGSPTSTEEGSPAGSPTSTEEGSPAGSPTSTEEGTSESATPESGPGTSTEPSEGSAPGTSESATPESGPGSEPATSGSETPGTSESATPESGPGSEPATSGSETPGTSESATPESGPGTSTEPSEGSAPGSPAGSPTSTEEGTSESATPESGPGSEPATSGSETPGTSESATPESGPGSPAGSPTSTEEGSPAGSPTSTEEGTSTEPSEGSAPGTSESATPESGPGTSESATPESGPGTSPSATPESGPGSEPATSGSETPGSEPATSGSETPGSPAGSPTSTEEGTSTEPSEGSAPGTSTEPSEGSAPGSEPATSGSETPGTSESAGEPEA
Turning to B11, the Kd with human PSMA [6] worked out at 353 nM; in the assay with Human CD3, 34.4 nM; with Cyno CD3, 26.7 nM.

B12: uTCE of AC3342 (bispecific antibody, V domains shown)
VH: QVQLVESGGGVVQPGRSLRLSCAASGRTFGIYVMGWVRQAPGKEREFVAAISWSGSNRLVSDSVKGRFTISRDNSKNTLYLQMNSLRAEDTAVYYCAASNKLYGRTWYDFNESDYWGQGTQVTVSS
notes: VHH in uTCE with CD3.23 scFv (VL-VH), 9-residue linker; also called PSMA.132; R101K
B12 had a Kd with human PSMA-Fc [1] of 5.6 nM. In the assay with human PSMA-Fc [7], this molecule registered a Kd of 5.6 nM, an off-rate constant (koff) of 0.000479 s⁻¹ and a kon of 86600 M⁻¹ s⁻¹.

What is called Kd is the equilibrium constant for the complex coming apart. A word on the koff: it is a measure of how fast the partners let go of each other. As a reminder, the kon is the second-order rate constant of association.
